Data published in the supplement of paper PMC10567573.

B1: CPN1 (parent)
chain: RGVRRTASTPTPDDKLFQKLAKVY

Variants of: B1
Assay: protein stability index of a GFP-peptide fusion (GPS, HEK-293T) (PSI 1-6); higher = more stable
Details: c terminus: a fixed tail appended
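Also: lentivirally expressed fusions sorted by FACS into six bins by GFP to DsRed ratio, PSI derived from sequencing read proportions per bin multiplied by bin number.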

| Variant | protein stability index |
| --- | --- |
| RGVRRYASTPTPDDKLFQKLAKVY | 1.59 |
| RGVRRTCSTPTPDDKLFQKLAKVY | 1.57 |
| RGVRRTDSTPTPDDKLFQKLAKVY | 2.05 |
| RGVRRTESTPTPDDKLFQKLAKVY | 2.05 |
| RGVRRTFSTPTPDDKLFQKLAKVY | 1.25 |
| RGVRRTGSTPTPDDKLFQKLAKVY | 2.38 |
| RGVRRTHSTPTPDDKLFQKLAKVY | 1.41 |
| RGVRRTLSTPTPDDKLFQKLAKVY | 1.17 |
| RGVRRTMSTPTPDDKLFQKLAKVY | 1.62 |
| RGVRRTNSTPTPDDKLFQKLAKVY | 2.54 |
| RGVRRTPSTPTPDDKLFQKLAKVY | 1.85 |
| RGVRRTQSTPTPDDKLFQKLAKVY | 2.37 |
| RGVRRTRSTPTPDDKLFQKLAKVY | 1.71 |
| RGVRRTSSTPTPDDKLFQKLAKVY | 1.97 |
| RGVRRTTSTPTPDDKLFQKLAKVY | 2.07 |
| RGVRRTVSTPTPDDKLFQKLAKVY | 2.75 |
| RGVRRTWSTPTPDDKLFQKLAKVY | 2.59 |
| RGVRRTYSTPTPDDKLFQKLAKVY | 2 |
| RGVRRTAATPTPDDKLFQKLAKVY | 2 |
| RGVRRTADTPTPDDKLFQKLAKVY | 2.19 |
| RGVRRTAETPTPDDKLFQKLAKVY | 1.63 |
| RGVRRTAFTPTPDDKLFQKLAKVY | 1.7 |
| RGVRRTAGTPTPDDKLFQKLAKVY | 1.1 |
| RGVRRTAHTPTPDDKLFQKLAKVY | 1.82 |

| Variant | protein stability index |
| --- | --- |
| RGVRRTAITPTPDDKLFQKLAKVY | 1.57 |
| RGVRRTAKTPTPDDKLFQKLAKVY | 2.85 |
| RGVRRTALTPTPDDKLFQKLAKVY | 1.76 |
| RGVRRTAMTPTPDDKLFQKLAKVY | 1.44 |
| RGVRRTANTPTPDDKLFQKLAKVY | 2.1 |
| RGVRRTAQTPTPDDKLFQKLAKVY | 2.18 |
| RGVRRTATTPTPDDKLFQKLAKVY | 1.6 |
| RGVRRTAWTPTPDDKLFQKLAKVY | 3.14 |
| RGVRRTAYTPTPDDKLFQKLAKVY | 3 |
| RGVRRTASAPTPDDKLFQKLAKVY | 2.07 |
| RGVRRTASCPTPDDKLFQKLAKVY | 2.57 |
| RGVRRTASFPTPDDKLFQKLAKVY | 2.3 |
| RGVRRTASGPTPDDKLFQKLAKVY | 3.11 |
| RGVRRTASHPTPDDKLFQKLAKVY | 2.27 |
| RGVRRTASIPTPDDKLFQKLAKVY | 1.68 |
| RGVRRTASKPTPDDKLFQKLAKVY | 2.57 |
| RGVRRTASLPTPDDKLFQKLAKVY | 1.27 |
| RGVRRTASMPTPDDKLFQKLAKVY | 1.45 |
| RGVRRTASNPTPDDKLFQKLAKVY | 1.54 |
| RGVRRTASPPTPDDKLFQKLAKVY | 3 |
| RGVRRTASQPTPDDKLFQKLAKVY | 1.84 |
| RGVRRTASRPTPDDKLFQKLAKVY | 1.3 |
| RGVRRTASSPTPDDKLFQKLAKVY | 1.94 |
| RGVRRTASVPTPDDKLFQKLAKVY | 1.97 |

| Variant | protein stability index |
| --- | --- |
| RGVRRTASWPTPDDKLFQKLAKVY | 2.02 |
| RGVRRTASYPTPDDKLFQKLAKVY | 1.52 |
| RGVRRTASTATPDDKLFQKLAKVY | 2.13 |
| RGVRRTASTCTPDDKLFQKLAKVY | 2.07 |
| RGVRRTASTDTPDDKLFQKLAKVY | 2.49 |
| RGVRRTASTETPDDKLFQKLAKVY | 2.81 |
| RGVRRTASTFTPDDKLFQKLAKVY | 2.19 |
| RGVRRTASTGTPDDKLFQKLAKVY | 2.27 |
| RGVRRTASTHTPDDKLFQKLAKVY | 1.34 |
| RGVRRTASTITPDDKLFQKLAKVY | 1.48 |
| RGVRRTASTKTPDDKLFQKLAKVY | 1.8 |
| RGVRRTASTLTPDDKLFQKLAKVY | 1.02 |
| RGVRRTASTMTPDDKLFQKLAKVY | 1.89 |
| RGVRRTASTNTPDDKLFQKLAKVY | 2.06 |
| RGVRRTASTQTPDDKLFQKLAKVY | 1.78 |
| RGVRRTASTRTPDDKLFQKLAKVY | 1.74 |
| RGVRRTASTSTPDDKLFQKLAKVY | 2.09 |
| RGVRRTASTTTPDDKLFQKLAKVY | 1.75 |
| RGVRRTASTVTPDDKLFQKLAKVY | 1.79 |
| RGVRRTASTWTPDDKLFQKLAKVY | 1.36 |
| RGVRRTASTYTPDDKLFQKLAKVY | 1.79 |
| RGVRRTASTPAPDDKLFQKLAKVY | 2.29 |
| RGVRRTASTPCPDDKLFQKLAKVY | 1.83 |
| RGVRRTASTPDPDDKLFQKLAKVY | 2.26 |

| Variant | protein stability index |
| --- | --- |
| RGVRRTASTPEPDDKLFQKLAKVY | 2.1 |
| RGVRRTASTPFPDDKLFQKLAKVY | 1.92 |
| RGVRRTASTPGPDDKLFQKLAKVY | 2.54 |
| RGVRRTASTPHPDDKLFQKLAKVY | 2.04 |
| RGVRRTASTPIPDDKLFQKLAKVY | 1.71 |
| RGVRRTASTPKPDDKLFQKLAKVY | 2.56 |
| RGVRRTASTPLPDDKLFQKLAKVY | 1.52 |
| RGVRRTASTPMPDDKLFQKLAKVY | 2.03 |
| RGVRRTASTPNPDDKLFQKLAKVY | 2.23 |
| RGVRRTASTPQPDDKLFQKLAKVY | 2.29 |
| RGVRRTASTPRPDDKLFQKLAKVY | 1.82 |
| RGVRRTASTPSPDDKLFQKLAKVY | 1.86 |
| RGVRRTASTPVPDDKLFQKLAKVY | 1.67 |
| RGVRRTASTPWPDDKLFQKLAKVY | 1.92 |
| RGVRRTASTPYPDDKLFQKLAKVY | 2.25 |
| RGVRRTASTPTADDKLFQKLAKVY | 2.06 |
| RGVRRTASTPTCDDKLFQKLAKVY | 1.65 |
| RGVRRTASTPTDDDKLFQKLAKVY | 2.37 |
| RGVRRTASTPTEDDKLFQKLAKVY | 3.13 |
| RGVRRTASTPTFDDKLFQKLAKVY | 2.38 |
| RGVRRTASTPTGDDKLFQKLAKVY | 2.4 |
| RGVRRTASTPTHDDKLFQKLAKVY | 1.94 |
